The results in this text go back to PMC10275869 (Nature Communications, 2023).

B1: 12B2 (human IgG1) (antibody, V domains shown)
VH: QVQLKESGPGLVAPSQSLSITCTVSGFSLASYGVHWVRQPPGKGLEWLGVIWTGGSTNYNSALMSRLSINRDNSKSQVFLKLNSLQTDDTAIYYCARDRGYGYGGFAYWGQGTLVTVSA
VL: DIQMTQSPASLSASVGETVTITCRASENIYSYLAWYQHKQGKSPQLLVYNAKSLAEGVPSRFSGSGSGTQFSLKINSLQPEDFGSYYCQHHYGTPWTFGGGTKLEIK
B2: mAb66 (human IgG1) (antibody, V domains shown)
VH: ETGSGGGLVKPGGTLTLTCKASGFTLSSYWMCWVRQAPGKGLELIACLYTNGATTWYASWVNGRFAISRSTSRNTVDLNMTSLTAADTATYFCARGSGSGWSWFNIWGPGTLVTVSS
VL: TGVMTQTPASVEAAVGGTVTIKCQASQNIISSLAWYQQKPGQRPKLLIYYASTLASGVPSRFKGSGSGTQFTLTISDLECADAATYYCQSYYYSGITYGNAFGGGTEVVVK
B3: 1F5 (human IgG1) (antibody, V domains shown)
VH: DVQLQESGPGLVKPSQSLSLTCSVTGYSITSDYYWNWIRQFPGNKLEWMGYVTYDGSNNYNPSLKNRISITRDSSKNQFFLKLNSVISEDTATYYCARFGSSYWAMDYWGQGTSLTVSS
VL: QIVLTQSPAIMSASLGEAITLTCSASSSVSYMHWYQQKSGTSPKLLIYSTSNLASGVPSRFSGSGSGTFYSLTISSVEAEDAADYYCHQWYSYPWTFGGGTKLEIK
B4: 5B3 (human IgG1) (antibody, V domains shown)
VH: EVQLVESGGGLVKPGGSLKLSCAASGFTFSSYDMSWVRQTPEKRLEWVAMISSGGSYSYYPDSVKGRFTISRDNAKNTLYLQMSSLRSEDTAMYYCARQGDYAWFAYWGQGTLVTVSS
VL: DIQMTQSPASQSASLGESVTITCLASQTIGTWLAWYQQKPGKSPQLLIYAATSLADGVPSRFSGSGSGTKFSFKISSLQAEDFVSYYCQQFYSTPFTFGGGTKLEIK

This assay concerns the target MojV F clamp2 (prefusion Mòjiāng virus fusion glycoprotein ectodomain stabilised with the clamp2 molecular … (Mòjiāng virus)). Nature of the assay: ELISA. The settings on record: both partners purified. (An ELISA detects its analyte on a solid surface through an enzyme-linked reagent.)
Regarding B1, the binding result is given as “no binding (tested: 50 μg/mL)”.
With B2 the entry was “no binding (tested: 50 μg/mL)”.
As for B3, the entry is “no binding (tested: 50 μg/mL)”; as for B4, “no binding (tested: 50 μg/mL)”.
